Laboratory results published in US20230340111A1 (published 2023).

Tests used:
[1] = target: T1, human FOLR1 recombinant protein (extracellular domain of human folate receptor alpha) (human, UniProt P15328 25-233); assay: SPR (Biacore T200), human FOLR1 immobilized on CM5, His6-tagged VHH as analyte, 1:1 fit
T1 construct: Bought recombinant protein (Sino Biological); also called hFOLR1; FR-alpha
Protocol: The kinetic parameters of antigen binding by purified VHHs were determined via surface plasmon resonance with a Biacore T200 instrument (GE Healthcare). The human FOLR1 recombinant protein (Sino Biological) was immobilized in 10 mM sodium acetate, pH 5.5 on a CM5 chip (GE Healthcare) via amine coupling chemistry to 500 RU. His₆-tagged VHHs were analyzed in a twofold serial dilution in HBS (125 nM-0.488 nM for VHHs A4 and A5; 10 nM-0.039 nM for VHHs A1, A2 and A3) with an analyte flow rate of 30 µl/min. The association phase took 180 s (A4-A5) or 450 s (A1-A3) and the dissociation phase 600 s (A4-A5) or 900 s (A1-A3). Regeneration was done by a single injection of 50 mM glycine-HCl, pH 2.5, 2 M MgCl₂ for 30 s at 30 µl/min, followed by 120 s stabilization. Binding curves were fitted using a ‘1:1 (antigen:analyte)’ binding model in Biacore T200 evaluation software.

[2] = target: T1, human FOLR1 recombinant protein …; assay: SPR (Biacore T200), single cycle kinetics, His6-tagged VHH immobilized on CM5, human FOLR1 as analyte, 1:1 fit
Protocol: The kinetic parameters of antigen binding for purified VHHs A1, A2 and A3 were determined via surface plasmon resonance with a Biacore T200 instrument (GE Healthcare) using single cycle kinetics mode. While example 4d provides a first and preferred way of assessing the kinetic parameters of antigen binding for VHHs using surface plasmon resonance, this example provides an alternative setup for using surface plasmon resonance to assess the kinetic parameters of antigen binding, inverting the analyte and immobilized ligand. His₆-tagged VHH A1, A2 or A3 was immobilized in 10 mM sodium acetate, pH 5.5 on a CM5 chip (GE Healthcare) via amine coupling chemistry to 160 RU. The human FOLR1 recombinant protein (Sino Biological) was analyzed in a threefold serial dilution in HBS (38.5 nM-0.47 nM) with an analyte flow rate of 30 µl/min. The association phase took 180 s for every concentration and the dissociation phase 900 s. Regeneration was done by a single injection of 50 mM glycine-HCl, pH 2.5, 2 M MgCl2 for 30 s at 30 µl/min, followed by 120 s stabilization. Binding curves were fitted using a ‘1:1 (antigen:analyte)’ binding model in Biacore T200 evaluation software.

[3] = target: T1, human FOLR1 recombinant protein …; assay: SPR dual injection on immobilized human FOLR1, 250 nM; competitor (1st VHH, saturating) A2; by the legend the value is of the 2nd VHH
Protocol: (§1) Competitive binding characteristics of His₆-tagged VHHs were determined via surface plasmon resonance with a Biacore T200 instrument (GE Healthcare). Immobilization of human FOLR1 recombinant protein (Sino Biological) and regeneration were performed as described below for kinetic measurements.
(§2) Table 8: Side-by-side comparison of His₆-tagged VHHs A1, A2, A3, A4, A5 for binding to human FOLR1 to identify competitive binding characteristics. Binding was measured in surface plasmon resonance with immobilized human FOLR1 recombinant protein as the ligand. After saturation of the ligand with VHH 1 an equimolar mixture of VHH 1 and VHH 2 was injected. Percentages express the loss in response level of VHH 2, relative to the response when VHH 2 was injected alone.

[4] = target: T1, human FOLR1 recombinant protein …; assay: SPR dual injection on immobilized human FOLR1, 250 nM; competitor (1st VHH, saturating) A3; by the legend the value is of the 2nd VHH
Protocol: as §1, §2

[5] = target: T1, human FOLR1 recombinant protein …; assay: SPR dual injection on immobilized human FOLR1, 250 nM; competitor (1st VHH, saturating) A4; by the legend the value is of the 2nd VHH
Protocol: as §1, §2

[6] = target: T1, human FOLR1 recombinant protein …; assay: SPR dual injection on immobilized human FOLR1, 250 nM; competitor (1st VHH, saturating) A5; by the legend the value is of the 2nd VHH
Protocol: as §1, §2

[7] = target: T2, human folate receptor beta (FOLR2), extracellular domain, recombinant (human, UniProt P14207 17-228, limits assumed); assay: ELISA, coated recombinant protein, HA-tagged VHH in bacterial extract
T2 construct: extracellular domain; Bought protein; also called human FOLR2
T2 sequence (P14207 17-228 limits assumed): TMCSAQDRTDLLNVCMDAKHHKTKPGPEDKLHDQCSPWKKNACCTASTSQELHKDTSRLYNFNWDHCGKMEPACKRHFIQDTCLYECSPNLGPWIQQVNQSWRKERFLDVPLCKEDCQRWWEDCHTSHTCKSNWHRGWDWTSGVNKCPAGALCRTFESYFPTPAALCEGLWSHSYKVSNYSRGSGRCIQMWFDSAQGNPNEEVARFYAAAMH
Protocol: (§3) The day before, 0.1 µg recombinant protein at a concentration of 1 µg/mL in 100 mM NaHCO3, pH 8.2 was coated in a 96-well ELISA plate (Nunc MaxiSorp). Per VHH clone also a blank coated well was foreseen (only buffer). The wells were overcoated with protein-free T20 (PBS) blocking buffer (Pierce). After washing with PBS, pH7.4, 0.05% Tween, VHH-containing bacterial extract was added to every well. Binding of HA-tagged VHHs was detected by using mouse anti-HA.11 epitope tag (clone 16B12, Biolegend) as the primary Ab and goat anti-mouse IgG (whole molecule) alkaline phosphatase conjugate (Sigma-Aldrich) as the secondary Ab, with thorough washing with PBS, pH 7.4, 0.05% Tween in between. Signals were developed using phosphatase substrate (Sigma-Aldrich) in AP blot buffer (100 mM NaCl, 50 mM MgCl2, 100 mM Tris, pH 9.5). The absorbance was determined at 405 nm using an absorbance microplate reader (Molecular Devices). Per clone the ratio was determined between the absorbance in the antigen-coated well versus the well without antigen.

[8] = target: T3, human folate receptor gamma (FOLR3), recombinant (human, UniProt P41439 23-245, limits assumed); assay: as above
T3 construct: extracellular domain; Bought protein; also called human FOLR3
T3 sequence (P41439 23-245 limits assumed): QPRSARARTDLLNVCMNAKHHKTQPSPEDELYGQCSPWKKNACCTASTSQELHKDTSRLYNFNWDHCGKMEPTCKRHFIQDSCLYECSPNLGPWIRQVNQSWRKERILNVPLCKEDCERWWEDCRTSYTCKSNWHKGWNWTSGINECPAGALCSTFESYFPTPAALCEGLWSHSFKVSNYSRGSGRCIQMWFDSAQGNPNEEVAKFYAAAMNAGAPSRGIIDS
Protocol: as §3

[9] = target: T4, murine FOLR1, extracellular domain, recombinant (murine, UniProt P35846 25-232); assay: as above
T4 construct: extracellular domain; Bought protein; also called mouse FOLR1
T4 sequence (P35846 25-232 limits assumed): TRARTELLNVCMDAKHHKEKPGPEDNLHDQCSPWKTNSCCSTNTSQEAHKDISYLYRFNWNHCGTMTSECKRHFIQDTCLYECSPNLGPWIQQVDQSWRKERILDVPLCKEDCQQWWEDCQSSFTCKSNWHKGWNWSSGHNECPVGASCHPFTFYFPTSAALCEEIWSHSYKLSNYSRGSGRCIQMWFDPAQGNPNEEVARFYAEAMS
Protocol: as §3

[10] = target: human FOLR1 recombinant protein (extracellular domain of human folate receptor alpha) (human) (UniProt P15328); assay: ELISA; coated recombinant protein, HA-tagged VHH in bacterial extract, anti-HA detection; A405 antigen well / blank well
Chain of human FOLR1 recombinant protein (extracellular domain of human folate receptor alpha) (human) (P15328 25-233): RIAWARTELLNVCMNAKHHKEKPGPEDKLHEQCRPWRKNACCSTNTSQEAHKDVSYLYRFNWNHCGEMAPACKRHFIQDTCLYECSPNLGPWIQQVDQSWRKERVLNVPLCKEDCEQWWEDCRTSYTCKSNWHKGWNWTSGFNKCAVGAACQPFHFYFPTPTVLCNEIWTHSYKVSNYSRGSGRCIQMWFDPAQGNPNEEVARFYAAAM

[11] = target: T2, human folate receptor beta (FOLR2), …; assay: as above
Protocol: as §3

[12] = target: T3, human folate receptor gamma (FOLR3), …; assay: as above
Protocol: as §3

[13] = target: T4, murine FOLR1, extracellular domain, …; assay: as above
Protocol: as §3

[14] = target: T5, human FOLR1 expressed on SKOV-3 ovarian carcinoma cells (human, UniProt P15328 25-234); assay: saturation binding of 131I-labelled untagged VHH on SKOV-3 cells
T5 construct: Naturally expressed receptor on SKOV-3 cells; also called human FOLR1pos SKOV-3 cancer cells; human FOLR1-expressing cell line SKOV-3
T5 sequence (P15328 25-234 limits assumed): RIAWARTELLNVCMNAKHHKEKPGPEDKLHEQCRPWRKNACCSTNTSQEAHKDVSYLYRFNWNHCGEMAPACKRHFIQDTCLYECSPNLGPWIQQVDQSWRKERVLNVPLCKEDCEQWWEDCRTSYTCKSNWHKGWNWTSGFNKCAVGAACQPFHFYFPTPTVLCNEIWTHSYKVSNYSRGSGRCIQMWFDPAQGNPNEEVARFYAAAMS

[15] = target: T5, human FOLR1 expressed on SKOV-3 ovarian …; assay: cellular retention on SKOV-3 cells: 10 nM 131I-VHH 1 h at 4 C, then up to 24 h at 37 C; membrane-bound plus internalized fraction
Protocol: The in vitro cellular retention of the different His₆- and untagged ¹³¹I-labeled VHHs was assessed on the same cancer cells. In this particular case, human FOLR1^pos SKOV-3 cancer cells were incubated with 10 nM ¹³¹I-labelled VHHs for 1h at 4° C., after which the unbound fraction was collected. A 100-fold excess of the corresponding unlabeled VHH to assess non-specific binding. Next, the cells were incubated with fresh medium up to 24 h at 37° C., after which the dissociated fraction was collected. Afterwards, the cells were washed with 0.05 M glycine pH 2.8 to collect the membrane-bound fraction. Finally, cells were solubilized with 1 M NaOH at room temperature to collect the internalized fraction. The sum of the membrane-bound and internalized fractions corresponds to the total cell-associated fraction.

[16] = target: T1, human FOLR1 recombinant protein …; assay: SPR dual injection on immobilized human FOLR1, 250 nM; competitor (1st VHH, saturating) A1; by the legend the value is of the 2nd VHH
Protocol: as §1, §2

T1 sequence (P15328 25-233): as the sequence (P15328 25-233) above

Row | Kd [1] [nM] | koff [1] [s⁻¹] | kon [1] [M⁻¹ s⁻¹] | loss in response level of VHH 2 relative to VHH 2 injected alone [3] [%] | loss in response level of VHH 2 relative to VHH 2 injected alone [4] [%] | binding result [7] | binding result [8] | binding result [9] | signal-to-background ratio [10] | signal-to-background ratio [11] | signal-to-background ratio [12] | signal-to-background ratio [13] | Binder | further results
1 | 0.04 | 0.00014 | 3.6e+06 | -98 | -100 |  |  |  |  |  |  |  | His6-tagged variant of VHH A1 (VHH, Purified, unlabelled; also called A1 His6-tag) VHH: DVQLVESGGGLVQPGGSLRLSCAASESIFSRNHMSWYRQAPGKQRELAAIITSDGNTNYPDSVKGRFTISRDNAKNTVYLQMNSLKPEDTAVYYCNTFGRSVAGFYDYWGQGTQVTVSS | Kd [2]: 0.44 nM; koff [2]: 0.00019 s⁻¹; kon [2]: 430000 M⁻¹ s⁻¹; loss in response level of VHH 2 relative to VHH 2 injected alone [5]: -98%; loss in response level of VHH 2 relative to VHH 2 injected alone [6]: -91%
2 |  |  |  |  |  | no binding | no binding | no binding | > 20 | ~1 | ~1 | ~1 | HA-tagged variant of VHH A3 (VHH, Used as VHH-containing bacterial (periplasmic) extract in ELISA; also called A3 HA-tag) VHH: QVQLQESGGGLVQAGGSLRLSCGVSGNMFSMNLMGWYRQPPGKERDWVAVITKDGSTNYADSVKGRFTISRDNAKNTVSLQMNSLKPEDTAVYYCNVQDGSGWIRAWGWDWGQGTQVTVSS | 
3 |  |  |  |  |  |  |  |  |  |  |  |  | 131I-labeled untagged VHH A3 (VHH, [131I]SGMIB conjugated to lysine side-chain amine groups) VHH: DVQLVESGGGLVQAGGSLRLSCGVSGNMFSMNLMGWYRQPPGKERDWVAVITKDGSTNYADSVKGRFTISRDNAKNTVSLQMNSLKPEDTAVYYCNVQDGSGWIRAWGWDWGQGTQVTVSS | EC50 [14]: 5.8 nM; cell-associated fraction of initial bound activity after 24 h [15]: 15%
4 |  |  |  |  |  | no binding | no binding | no binding | > 20 | ~1 | ~1 | ~1 | HA-tagged variant of VHH A5 (VHH, Used as VHH-containing bacterial (periplasmic) extract in ELISA; also called A5 HA-tag) VHH: QVQLQESGGGLVQAGGSLRLSCGVSGNIFSMNLMGWYRQPPGKEREWVALITKDGSTNYEDSVKGRFTISRDNAKNTVSLQMNSLKPEDTAVYYCNAQDGSGWIRAWGWDWGQGTQVTVSS | 
5 | 14 | 0.018 | 1.3e+06 | -99 | -100 |  |  |  |  |  |  |  | His6-tagged variant of VHH A5 (VHH, Purified, unlabelled; also called A5 His6-tag) VHH: DVQLVESGGGLVQAGGSLRLSCGVSGNIFSMNLMGWYRQPPGKEREWVALITKDGSTNYEDSVKGRFTISRDNAKNTVSLQMNSLKPEDTAVYYCNAQDGSGWIRAWGWDWGQGTQVTVSS | loss in response level of VHH 2 relative to VHH 2 injected alone [16]: -96%; loss in response level of VHH 2 relative to VHH 2 injected alone [5]: -98%
6 |  |  |  |  |  | no binding | no binding | no binding | > 20 | ~1 | ~1 | ~1 | HA-tagged variant of VHH A4 (VHH, Used as VHH-containing bacterial (periplasmic) extract in ELISA; also called A4 HA-tag) VHH: QVQLQESGGGLARAGGSLRLSCAASGRAFSSTYAMGWFRQAPGKEREFVADINWSEGSPMYIDSVKDRFTISRDNARNSLYLQMNSLKSEDTAVYYCAARRFGQGYEYWGQGTQVTVSS | 
7 | 4.3 | 0.0057 | 1.3e+06 | -99 | -100 |  |  |  |  |  |  |  | His6-tagged variant of VHH A4 (VHH, Purified, unlabelled; also called A4 His6-tag) VHH: DVQLVESGGGLARAGGSLRLSCAASGRAFSSTYAMGWFRQAPGKEREFVADINWSEGSPMYIDSVKDRFTISRDNARNSLYLQMNSLKSEDTAVYYCAARRFGQGYEYWGQGTQVTVSS | loss in response level of VHH 2 relative to VHH 2 injected alone [16]: -97%; loss in response level of VHH 2 relative to VHH 2 injected alone [6]: -91%
